Measurements as given in US20230212319A1, “NOVEL ANTIGEN BINDING DOMAINS AND SYNTHETIC ANTIGEN RECEPTORS INCORPORATING THE SAME” (University of Southern California, priority 2020, published 2023).

test system: RAJI cells; test: JNG assay, co-culture with RAJI cells; type: cell-based; details: JNG cells expressing construct, co-culture with Raji
Summary of the method: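 Jurkat NFAT-GFP (JNG) cells stably transduced with SARs by lentivirus, with drug selection where the construct carried a resistance gene, then co-cultured with target cells at E:T ~1:2 for ~4–18 h. % GFP-positive cells measured by FACS against parental JNG; +/- to 5+ correspond to ~5–50% GFP-positive.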

Row | Molecule | NFAT-GFP ASSAY: Raji
1 | 22223 (protein) MALPVTALLLPLALLLHAARPDIQMTQSPSSLSASVGDRVTITCKASDHINNWLAWYQQKPGQAPKLLIYGATTLETGVPSRFSGSGSGTDYTLTISSLQPEDFATYYCQQSWNTPWTFGQGTKLEIKRLEDLKNVFPPEVAVFEPSEAEISHTQKATLVCLATGFYPDHVELSWWVNGKEVHSGVCTDPQPLKEQPALNDSRYCLSSRLRVSATFWQNPRNHFRCQVQFYGLSENDEWTQDRAKPVTQIVSAEAWGRADCGFTSESYQQGVLSATILYEILLGKATLYAVLVSALVLMAMVKRKDSRGRAKRSGSGATNFSLLKQAGDVEENPGPTSATMDWIWRILFLVGAATGAHSGPQLGPYELWELSHGSGPLGIAGIFEQVQLQQPGAELVKPGASVKMSCKASGYAFSSYWINWMKQKPGQGLEWIGQIYPGDGDTNYNGKFKGRATLTADTSSSTAYMQLSSLTSEDSAVYFCARSITTVVGCAMDYWGQGTSVTVSSTRIQNPDPAVYQLRDSKSSDKSVCLFTDFDSQTNVSQSKDSDVYITDKCVLDMRSMDFKSNSAVAWSNKSDFACANAFNNSIIPEDTFFPSPESSCDVKLVEKSFETDTNLNFQNLSVIGFRILLLKVAGFNLLMTLRLWSSRAKRSGSGVKQTLNFDLLKLAGDVESNPGPSRGHMTEYKPTVRLATRDDVPRAVRTLAAAFADYPATRHTVDPDRHIERVTELQELFLTRVGLDIGKVWVADDGAAVAVWTTPESVEAGAVFAEIGPRMAELSGSRLAAQQQMEGLLAPHRPKEPAWFLATVGVSPDHQGKGLGSAVVLPGVEAAERAGVPAFLETSAPRNLPFYERLGFTVTADVEVPEGPRTWCMTRKPGA | Raji (3+) (refer to approximately 5%, 10%, 20%, 30%, 40% and 50% GFP positive cells)
2 | 22222 (protein) MALPVTALLLPLALLLHAARPACPQLGPYELWELSHGTGAVVRGAEFDIQMTQSPSSLSASVGDRVTITCKASDHINNWLAWYQQKPGQAPKLLIYGATTLETGVPSRFSGSGSGTDYTLTISSLQPEDFATYYCQQSWNTPWTFGQGTKLEIKRLEDLKNVFPPEVAVFEPSKAEIAHTQKATLVCLATGFYPDHVELSWWVNGKEVHSGVCTDPQPLKEQPALNDSRYCLSSRLRVSATFWQNPRNHFRCQVQFYGLSENDEWTQDRAKPVTQIVSAEAWGRADCGITSASYHQGVLSATILYEILLGKATLYAVLVSALVLMAMVKRKDSRGRAKRSGSGATNFSLLKQAGDVEENPGPTSATMDWIWRILFLVGAATGAHSGPQVQLQESGGGLAQAGGSLRLSCAASGRTFSMGWFRQAPGKEREFVAAITYSGGSPYYASSVRGRFTISRDNAKNTVYLQMNSLKPEDTAVYYCAANPTYGSDWNAENWGQGTQVTVSSGSGGGGSGGGGSGGGGSFEQVQLQQPGAELVKPGASVKMSCKASGYAFSSYWINWMKQKPGQGLEWIGQIYPGDGDTNYNGKFKGRATLTADTSSSTAYMQLSSLTSEDSAVYFCARSITTVVGCAMDYWGQGTSVTVSSTRIQNPDPAVYQLRDSKSSDKSVCLFTDFDSQTNVSQSKDSDVYITDKCVLDMRSMDFKSNSAVAWSNKSDFACANAFNNSIIPEDTFFPSSDVPCDVKLVEKSFETDTNLNFQNLSVIGFRILLLKVAGFNLLMTLRLWSSRAKRSGSGVKQTLNFDLLKLAGDVESNPGPSRGHMTEYKPTVRLATRDDVPRAVRTLAAAFADYPATRHTVDPDRHIERVTELQELFLTRVGLDIGKVWVADDGAAVAVWTTPESVEAGAVFAEIGPRMAELSGSRLAAQQQMEGLLAPHRPKEPAWFLATVGVSPDHQGKGLGSAVVLPGVEAAERAGVPAFLETSAPRNLPFYERLGFTVTADVEVPEGPRTWCMTRKPGA | Raji (2+) (refer to approximately 5%, 10%, 20%, 30%, 40% and 50% GFP positive cells)
3 | 22228 (protein) MALPVTALLLPLALLLHAARPDIQMTQSPSSLSASVGDRVTITCKASDHINNWLAWYQQKPGQAPKLLIYGATTLETGVPSRFSGSGSGTDYTLTISSLQPEDFATYYCQQSWNTPWTFGQGTKLEIKRLEDLKNVFPPEVAVFEPSEAEISHTQKATLVCLATGFYPDHVELSWWVNGKEVHSGVCTDPQPLKEQPALNDSRYCLSSRLRVSATFWQNPRNHFRCQVQFYGLSENDEWTQDRAKPVTQIVSAEAWGRADCGFTSESYQQGVLSATILYEILLGKATLYAVLVSALVLMAMVKRKDSRGRAKRSGSGATNFSLLKQAGDVEENPGPTSATMDWIWRILFLVGAATGAHSGPQDKLTQWPKWLEGSGGGGSGGGGSGGGGSFEQVQLQQPGAELVKPGASVKMSCKASGYAFSSYWINWMKQKPGQGLEWIGQIYPGDGDTNYNGKFKGRATLTADTSSSTAYMQLSSLTSEDSAVYFCARSITTVVGCAMDYWGQGTSVTVSSTRIQNPDPAVYQLRDSKSSDKSVCLFTDFDSQTNVSQSKDSDVYITDKCVLDMRSMDFKSNSAVAWSNKSDFACANAFNNSIIPEDTFFPSPESSCDVKLVEKSFETDTNLNFQNLSVIGFRILLLKVAGFNLLMTLRLWSSRAKRSGSGVKQTLNFDLLKLAGDVESNPGPSRGHMTEYKPTVRLATRDDVPRAVRTLAAAFADYPATRHTVDPDRHIERVTELQELFLTRVGLDIGKVWVADDGAAVAVWTTPESVEAGAVFAEIGPRMAELSGSRLAAQQQMEGLLAPHRPKEPAWFLATVGVSPDHQGKGLGSAVVLPGVEAAERAGVPAFLETSAPRNLPFYERLGFTVTADVEVPEGPRTWCMTRKPGA | Raji (2+) (refer to approximately 5%, 10%, 20%, 30%, 40% and 50% GFP positive cells)
4 | 22219 (protein) MALPVTALLLPLALLLHAARPDIQMTQSPSSLSASVGDRVTITCKASDHINNWLAWYQQKPGQAPKLLIYGATTLETGVPSRFSGSGSGTDYTLTISSLQPEDFATYYCQQSWNTPWTFGQGTKLEIKRLEDLKNVFPPEVAVFEPSEAEISHTQKATLVCLATGFYPDHVELSWWVNGKEVHSGVCTDPQPLKEQPALNDSRYCLSSRLRVSATFWQNPRNHFRCQVQFYGLSENDEWTQDRAKPVTQIVSAEAWGRADCGFTSESYQQGVLSATILYEILLGKATLYAVLVSALVLMAMVKRKDSRGRAKRSGSGATNFSLLKQAGDVEENPGPTSATMDWIWRILFLVGAATGAHSGPSACPYSNPSLCSGSGGGGSGGGGSGGGGSFEQVQLQQPGAELVKPGASVKMSCKASGYAFSSYWINWMKQKPGQGLEWIGQIYPGDGDTNYNGKFKGRATLTADTSSSTAYMQLSSLTSEDSAVYFCARSITTVVGCAMDYWGQGTSVTVSSTRIQNPDPAVYQLRDSKSSDKSVCLFTDFDSQTNVSQSKDSDVYITDKCVLDMRSMDFKSNSAVAWSNKSDFACANAFNNSIIPEDTFFPSPESSCDVKLVEKSFETDTNLNFQNLSVIGFRILLLKVAGFNLLMTLRLWSSRAKRSGSGVKQTLNFDLLKLAGDVESNPGPSRGHMTEYKPTVRLATRDDVPRAVRTLAAAFADYPATRHTVDPDRHIERVTELQELFLTRVGLDIGKVWVADDGAAVAVWTTPESVEAGAVFAEIGPRMAELSGSRLAAQQQMEGLLAPHRPKEPAWFLATVGVSPDHQGKGLGSAVVLPGVEAAERAGVPAFLETSAPRNLPFYERLGFTVTADVEVPEGPRTWCMTRKPGA | Raji (+/-) (refer to approximately 5%, 10%, 20%, 30%, 40% and 50% GFP positive cells)
5 | 22227 (protein) MALPVTALLLPLALLLHAARPDIQMTQSPSSLSASVGDRVTITCKASDHINNWLAWYQQKPGQAPKLLIYGATTLETGVPSRFSGSGSGTDYTLTISSLQPEDFATYYCQQSWNTPWTFGQGTKLEIKRLEDLKNVFPPEVAVFEPSEAEISHTQKATLVCLATGFYPDHVELSWWVNGKEVHSGVCTDPQPLKEQPALNDSRYCLSSRLRVSATFWQNPRNHFRCQVQFYGLSENDEWTQDRAKPVTQIVSAEAWGRADCGFTSESYQQGVLSATILYEILLGKATLYAVLVSALVLMAMVKRKDSRGRAKRSGSGATNFSLLKQAGDVEENPGPTSATMDWIWRILFLVGAATGAHSGPQLGPYELWELSHGSALRRLLGLFGFEQVQLQQPGAELVKPGASVKMSCKASGYAFSSYWINWMKQKPGQGLEWIGQIYPGDGDTNYNGKFKGRATLTADTSSSTAYMQLSSLTSEDSAVYFCARSITTVVGCAMDYWGQGTSVTVSSTRIQNPDPAVYQLRDSKSSDKSVCLFTDFDSQTNVSQSKDSDVYITDKCVLDMRSMDFKSNSAVAWSNKSDFACANAFNNSIIPEDTFFPSPESSCDVKLVEKSFETDTNLNFQNLSVIGFRILLLKVAGFNLLMTLRLWSSRAKRSGSGVKQTLNFDLLKLAGDVESNPGPSRGHMTEYKPTVRLATRDDVPRAVRTLAAAFADYPATRHTVDPDRHIERVTELQELFLTRVGLDIGKVWVADDGAAVAVWTTPESVEAGAVFAEIGPRMAELSGSRLAAQQQMEGLLAPHRPKEPAWFLATVGVSPDHQGKGLGSAVVLPGVEAAERAGVPAFLETSAPRNLPFYERLGFTVTADVEVPEGPRTWCMTRKPGA | Raji (4+) (refer to approximately 5%, 10%, 20%, 30%, 40% and 50% GFP positive cells)
6 | 22218 (protein) MALPVTALLLPLALLLHAARPACQDKLTQWPKWLEGTGGGGSGGGGSGGGGSEFDIQMTQSPSSLSASVGDRVTITCKASDHINNWLAWYQQKPGQAPKLLIYGATTLETGVPSRFSGSGSGTDYTLTISSLQPEDFATYYCQQSWNTPWTFGQGTKLEIKRLEDLKNVFPPEVAVFEPSKAEIAHTQKATLVCLATGFYPDHVELSWWVNGKEVHSGVCTDPQPLKEQPALNDSRYCLSSRLRVSATFWQNPRNHFRCQVQFYGLSENDEWTQDRAKPVTQIVSAEAWGRADCGITSASYHQGVLSATILYEILLGKATLYAVLVSALVLMAMVKRKDSRGRAKRSGSGATNFSLLKQAGDVEENPGPTSATMDWIWRILFLVGAATGAHSGPQVQLQESGGGLAQAGGSLRLSCAASGRTFSMGWFRQAPGKEREFVAAITYSGGSPYYASSVRGRFTISRDNAKNTVYLQMNSLKPEDTAVYYCAANPTYGSDWNAENWGQGTQVTVSSGSGGGGSGGGGSGGGGSFEQVQLQQPGAELVKPGASVKMSCKASGYAFSSYWINWMKQKPGQGLEWIGQIYPGDGDTNYNGKFKGRATLTADTSSSTAYMQLSSLTSEDSAVYFCARSITTVVGCAMDYWGQGTSVTVSSTRIQNPDPAVYQLRDSKSSDKSVCLFTDFDSQTNVSQSKDSDVYITDKCVLDMRSMDFKSNSAVAWSNKSDFACANAFNNSIIPEDTFFPSSDVPCDVKLVEKSFETDTNLNFQNLSVIGFRILLLKVAGFNLLMTLRLWSSRAKRSGSGVKQTLNFDLLKLAGDVESNPGPSRGHMTEYKPTVRLATRDDVPRAVRTLAAAFADYPATRHTVDPDRHIERVTELQELFLTRVGLDIGKVWVADDGAAVAVWTTPESVEAGAVFAEIGPRMAELSGSRLAAQQQMEGLLAPHRPKEPAWFLATVGVSPDHQGKGLGSAVVLPGVEAAERAGVPAFLETSAPRNLPFYERLGFTVTADVEVPEGPRTWCMTRKPGA | Raji (3+) (refer to approximately 5%, 10%, 20%, 30%, 40% and 50% GFP positive cells)
